Assay results taken from patent US20060286035A1 (CYTOS BIOTECHNOLOGY, published 2006).

Tests used:
T-cadherin [1] = target: T1, T-cadherin (mouse, UniProt Q9WTR5 139-693); assay: flow cytometry titration on 293-EBNA cells transfected with pGF-T-cadherin; normalised geometric mean fluorescence of the GFP positive population
T1 construct: whole, on cells; also called adiponectin receptor; pGF-T-cadherin
T1 sequence (looked up): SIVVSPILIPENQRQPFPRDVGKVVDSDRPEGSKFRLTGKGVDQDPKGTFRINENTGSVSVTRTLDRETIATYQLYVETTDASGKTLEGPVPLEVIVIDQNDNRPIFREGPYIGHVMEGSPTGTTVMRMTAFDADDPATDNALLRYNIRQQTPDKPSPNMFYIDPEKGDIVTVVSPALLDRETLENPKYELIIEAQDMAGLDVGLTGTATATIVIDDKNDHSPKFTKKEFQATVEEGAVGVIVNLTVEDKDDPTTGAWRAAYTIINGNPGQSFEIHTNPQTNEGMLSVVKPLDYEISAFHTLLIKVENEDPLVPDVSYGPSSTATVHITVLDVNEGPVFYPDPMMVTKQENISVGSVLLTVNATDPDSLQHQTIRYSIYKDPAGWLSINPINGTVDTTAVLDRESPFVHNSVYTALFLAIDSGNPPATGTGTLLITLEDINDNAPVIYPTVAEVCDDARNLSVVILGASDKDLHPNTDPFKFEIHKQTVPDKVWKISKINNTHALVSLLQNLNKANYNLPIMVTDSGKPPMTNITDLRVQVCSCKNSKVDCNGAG
Method: (§1) 293-EBNA cells were transfected with pGF-T-cadherin. After two days the cells were harvested and stained with decreasing amounts of Acrp30-FLAG-C (50, 25, 12.5, 6.3, 3.1, 1.6, 0.8, 0.4 and 0 μg/ml) as described in example 6. To evaluate the dissociation constant, the geometric mean fluorescence (GMFl) of the GFP positive population was determined using FACS Winmdi software. The GMFl was then normalized as follows: (GMFL of the sample minus GMFl of samples stained with secondary reagents only) divided by maximal GMFL. The protein concentration is shown on the X axis and the normalised GMFL is shown on the Y axis.
(§2) In order to determine the dissociation constant of the adiponectin-T-cadherin interaction, 293-EBNA cells were transfected with pGF-T-cadherin as described in example 6. […] The cells were then analysed by FACS using a FACS Calibur (Becton Dickinson). To determine the binding affinity, the geometric mean fluorescence of the GFP positive population was determined using FACS WINmdi software. The geometric mean fluorescence was then normalised by deducing the mean fluorescence of the sample which was stained with the secondary reagents only from the different samples and then all the values were divided by the maximal fluorescence. The normalised values for the mean fluorescence were than plotted against the concentration of Acrp30-FLAG-C. […]

T-cadherin [2] = target: T1, T-cadherin; assay: flow cytometry titration on 293-EBNA cells transfected with pGF-T-cadherin; half-maximal concentration divided by the molecular weight
Method: as §1, §2

EC50 (T-cadherin [1]): 2.2 µg/mL | Kd (T-cadherin [2]): 83 nM
B1: Acrp30-FLAG-C (ligand)
chain: DADPEDDVTTTEELAPALVPPPKGTCAGWMAGIPGHPGHNGTPGRDGRDGTPGEKGEKGDAGLLGPKGETGDVGVTGAEGPRGFPGTPGRKGEPGEAAYMYRSAFSVGLETRVTVPNVPIRFTKIFYNQQNHYDGSTGKFYCNIPGLYYFSYHITVYMKDVKVSLFKKDKAVLFTYDQYQEKNVDQASGSVLLHLEVGDQVWLQVYGDGDHNGLYADNVNDSTFTGFLLYHDTNSLDDYKDDDDK
notes: The molecular weight used for the Kd is 26546 g/mol (monomer); Three bands on SDS-PAGE from differential glycosylation; also called Adiponectin-bait Acrp30-FLAG-C; adiponectin
